The nanobody polyreactivity screen of Harvey et al. (2022)

Experiment: yeast display, Sf9 membrane polyspecificity reagent, FACS + sequencing; frameworks hold sequencing errors
In short: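 Galactose induction of a Saccharomyces cerevisiae BJ5465 synthetic nanobody display library ran 36–48 hours. The cells were then stained for 1 hour at 4 °C with 10% biotinylated, detergent-solubilized Sf9 membrane reagent, pulled down on streptavidin microbeads and FACS-sorted into low and high (top ~1%) gates on expression and reagent-binding fluorescence. Labels for polyreactivity follow the gate of origin.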

Sequence	polyreactivity (PSR sort gate)
QVQLVESGGGLVQAGGSLRLSCAASGRTFGIYALGWYRQAPGKERELVAAITGRGGSTHYADSVKGRFTISRDNAKNTVYLQMNSLKPEDTAVYYCNAEGVYYDYKYGYYGYDYWGQGTQVTVSS	low polyreactivity
QVQLVESGGGLVQAGGSLRLSCAASGRTFGIYVMGWYRQAPGKERELVAAIRGGGTTYYADSVKGRFTISRDNANNTVYLQMNSLKPEDTAVYYCAAESRYQRYDYWGQGTQVTVSS	high polyreactivity
QVQLVESGGGLVQAGGSLRLSCAASGRTFGKNAMGWYRQAPGKEREFVAAITSRGGSTYYADSVKGRFTISRDNAKNTDYLQMNRLKPEDTAVYYCNREFKRQSQRTEHYYWGQGTQVTVSS	low polyreactivity
QVQLVESGGGLVQAGGSLRLSCAASGRTFGKNAMGWYRQAPGKEREFVAAITSRGGSTYYADSVKGRFTISRDNAKNTVYLQMNSLKPEDTAVYYCNREYKRPSQRTEHYYWGQGTQVTVSS	low polyreactivity
QVQLVESGGGLVQAGGSLRLSCAASGRTFGKYAMGWYRQAPGKERELVAAITGDGGSTYYADSVKGRFTISRDNAKNTVYLQMNSLKPEDTAVYYCNADPQRRNYDYWGQGTQVTVSS	high polyreactivity
QVQLVESGGGLVQAGGSLRLSCAASGRTFGLYAMGWYRQAPGKERELVAAMSYSGGSTYYADSVQGRFTISRDNAKNTVYLQMNSLKPEDTAVYYCAAVYYYASRTSKQPYYDWGQGTQVTVSS	high polyreactivity
QVQLVESGGGLVQAGGSLRLSCAASGRTFGLYAMRWYRQAPGKERELVAAISIRGGATYYAVSVKGRFTISRDNAKNTVYLQMNSLKPEDSAVYYCNKGPGRWYYWGQVTQVTVSS	low polyreactivity
QVQLVESGGGLVQAGGSLRLSCAASGRTFGLYDMGWYRQAPGKERELVAGITRRGGRTYYADSVKGRFTISRDNAKNTVYLQMNSLKPEDTAVYYCAVVTRYRYDYWGQGTQVTVSS	high polyreactivity
QVQLVESGGGLVQAGGSLRLSCAASGRTFGNNAMGWSRPAPGKERELVAAITASGGRTYYADSVKGRFTISRDNAKTTVYLQMNSLKPEDTAVYYCADGGPRVNGYGGYYWGQGTQVTVSS	high polyreactivity
QVQLVESGGGLVQAGGSLRLSCAASGRTFGNYAMGWYRQAPGKERELVAAITSAGRTYYADSVKGRFTISRDNAKNTVYLQMNSLKPEDTAVYYCNANRVSPYYWGQGTQVTVSS	low polyreactivity
QVQLVESGGGLVQAGGSLRLSCAASGRTFGNYAMGWYRQARGKERELVASISRRGGSTYYADSVKGRFTISRENAKNTVYLQMTSLKPDDTAVFYCATLRGRQRFGYDYWGQGTQVTVSS	high polyreactivity
QVQLVESGGGLVQAGGSLRLSCAASGRTFGPYAMGWYRQAPGKEREFVAAMSYSGGSTYYADSVKGRFTISRDTAKNTVFLQINSLKPEDTAVYYCAVDIDSNSGTRDYWGQGTQVTVSS	low polyreactivity
QVQLVESGGGLVQAGGSLRLSCAASGRTFGQNAMGWYRPAPGKERELVAAISRGGSTYYADSVKGRFTISRDNAKNTVYLQMNSLKPEDTAVYYCAAAKKSGVYLRLNYWGQGTQVTVSS	high polyreactivity
QVQLVESGGGLVQAGGSLRLSCAASGRTFGQNTMGWYRQAPGIERELVAAINWSGGSTYYADSVKGRFTISRDIAKNTVYVQMNSLKPEDTAVYYCAVRGYWGQGTQVTVSS	low polyreactivity
QVQLVESGGGLVQAGGSLRLSCAASGRTFGQNTMGWYRQAPGKERELVATITSDGGDTYYADSVKGRFTISRDNAKNTVYLQMNSLKPEDTAVYYCKADYAGPKYVGYTFRSFTMDYWGQGTQVTVSS	low polyreactivity
QVQLVESGGGLVQAGGSLRLSCAASGRTFGRNAMGWYRQAPGKEREFVAAISYRGGSTYYADSVKGRFTISRDNAKNTVYLQMNSLKPEDTAVYYCAVRFSAPGYYYWGQGTQVTVSS	high polyreactivity
QVQLVESGGGLVQAGGSLRLSCAASGRTFGRNAMGWYRQAPGKERELVAAISSSGTRTYYADSVKGRFTISRDNAKNTVYLQMNSLKPEDTAVYYCAVDTLRYKMDYWGQGTQVTVSS	low polyreactivity
QVQLVESGGGLVQAGGSLRLSCAASGRTFGRNGMGWYRQAPGKERELVAAISIGDSTTYADSVKGRFTISRDNAKNTVYLQMNSLKPEDTAVYYCAAEIERYPVWEYRGKYDYWGQGTQVTVSS	low polyreactivity
QVQLVESGGGLVQAGGSLRLSCAASGRTFGRYAMGWYRKAPGKERELVAAISCSGGSTYYADSVKGRFTISRDNAKNTVYLQMNSLKPEDTAVYYCAADWRQGLWYGYYYWGQGTQVTVSS	low polyreactivity
QVQLVESGGGLVQAGGSLRLSCAASGRTFGRYAMGWYRQAPGKERELVADITGGGSTNYADSVKGRFTISRDNAKNTVYFQMNSLKPEDTAVYYCNAGILSRWVRKYYYWGQGTQVTVSS	low polyreactivity
QVQLVESGGGLVQAGGSLRLSCAASGRTFGRYAMGWYRQAPGKERELVARIRTSGGRTYYADSVKGRFTISRDIAKNTVYLLMNSLNPEDTAVYYCGTSSQPWYYWSTQGDDFWGQGTQVSVSS	low polyreactivity
QVQLVESGGGLVQAGGSLRLSCAASGRTFGRYAMVWSRQAPGKERELVAAITRGGGSTYYADSVKGRFTISRDNAKYTVYLQMNSLKPEDTAVYYCAARNFRSPYGYDYWGQGTQVTVSS	high polyreactivity

Sequence	polyreactivity (PSR sort gate)
QVQLVESGGGLVQAGGSLRLSCAASGRTFGRYPMGCYRQAPGKERELVAAIRYSGSSTYYADSVKGRFTISRDNAKNTVYLQMYSLKPEDTAVYYCAKRYYGKDYWGQGSQVTVSS	high polyreactivity
QVQLVESGGGLVQAGGSLRLSCAASGRTFGSNAMGWYRQAPGKERELVAAISRVGSTYYADSVNGRFTISRDNAMNTVYLQMNSLKPEDTAVYYCPYDYWGQGTQVTVSS	low polyreactivity
QVQLVESGGGLVQAGGSLRLSCAASGRTFGSNAMGWYRQAPGKERELVAAITSGGGTYYADSVKGRFTISRDNAKNTVYLQMNSLKPEDTAVYYCNKLGTSFRRDYGSWGQGTQVTVSS	low polyreactivity
QVQLVESGGGLVQAGGSLRLSCAASGRTFGSYAMAWYRQAPGKERELVAAITWSGTGTYYADSVKGRFTISRDNAKNTVYLQMKSLKPEVTAVYYCAARYASGRRGEYWGQGTQVTVSS	high polyreactivity
QVQLVESGGGLVQAGGSLRLSCAASGRTFGSYAMGWNRPATRLERELVAAISDGGSTNYADSVKGRFTISRDNAKITVYLQMNSLTPEDTAVYYCAAEIFFAVFRFYYSGQGTQVTVSS	low polyreactivity
QVQLVESGGGLVQAGGSLRLSCAASGRTFGSYAMGWYRQAPGKERELVAGISWSGGITYYADSVKGRFTISRDNAKNTVYLQMNSLKPEDTAVYYCAASPRRDENAGRVRLYYWGQGTQVTVSS	high polyreactivity
QVQLVESGGGLVQAGGSLRLSCAASGRTFGTNALGWYRQAPGKERELVASIDLSADSTYYADSVKGRFTISRDNAKKTVYLQMNSLKPEDTAVYYCNKDGYPWPPNLDYWGQGTQVTVSS	low polyreactivity
QVQLVESGGGLVQAGGSLRLSCAASGRTFGTNTMGWYRQAPGKERELVAAIRRGGGTNYADSVKGRFTISRDNAKNTVYLQMNSLKPEDTAVYYCAAVRWNTGVGYYYWGQGTQVTVSS	high polyreactivity
QVQLVESGGGLVQAGGSLRLSCAASGRTFGVNAMGWYRQAPGKEREFVAAITWSGGSTYYADSVKGRFTISRDNAKNTVYLQMISLKPEDTAVYYCAAVQWRYDGSFTGYGYWGQGTQVTVSS	low polyreactivity
QVQLVESGGGLVQAGGSLRLSCAASGRTFGVNAMGWYRQAPGKERELVARIRVSGGRTYYADSVKGRFTISRDNAKNTVYLQMNSLKPEDTAVYYCNAGYTYNRVIWPYYYWGQGTQVTVSS	high polyreactivity
QVQLVESGGGLVQAGGSLRLSCAASGRTFGVNAMGWYRQAPGKERELVATIRRGGSTYYADSVKGRFTISRDNAKNTVYLQMNSLKPEDTAVYYCNASHVTWNRKYDYWGQGTQVNVSS	low polyreactivity
QVQLVESGGGLVQAGGSLRLSCAASGRTFGVYALGWYRQAPRKERELVAGIRWRGGSTYYADSVKGRFTISRDNAKNTVYLQMNSLKPEDTAVYYCAADVYLVKYDYWGQGTQVTVSS	low polyreactivity
QVQLVESGGGLVQAGGSLRLSCAASGRTFGVYAMGWYRQAPGKERELVATIRTTGSTNYADSVKGRFTISRDNAKYTVYLQMNSVKTEDTAVYYCAARLRQSKYYPYTTFTYDYWGQGTQVTVSS	high polyreactivity
QVQLVESGGGLVQAGGSLRLSCAASGRTFGVYAMGWYRQAPWKERELVAGIRWRGGSTYYADSVKGRFTISRDNAKNTVYLQMNSLKPEDTAVYYCAADVYLVKYDYWGQGTQVTVSS	low polyreactivity
QVQLVESGGGLVQAGGSLRLSCAASGRTFGWNAMGWYRQAPGKERELVASIRYSGGTTYYADSVKGRFTISRDNAKNTVYLQMKSLKPEDTAVYYCNSAYYNTGATRPYGYGYWGQGTQVTVSS	low polyreactivity
QVQLVESGGGLVQAGGSLRLSCAASGRTFGWNARGWYRQAPGKEKELVAAISWSGTNTYYADSVKGRFTISRDNAKNTVYLQMNSLKPEDTAVYYCAARDWTGSWNGYWSCEYNYWGQGTQVTGSS	low polyreactivity
QVQLVESGGGLVQAGGSLRLSCAASGRTFGWYAMGSYRQAPGKERELVAAITSGTSTYYADSVKGRFTISRDNAKYTVYLQMNSRKPEDTAVYYCAVDRGISVGYTRFDYWGQGTQVTVSS	low polyreactivity
QVQLVESGGGLVQAGGSLRLSCAASGRTFGWYAMGWYRQAPGKEREFVAVISRSGTNTYYADSVKGRFTISRDNAKNTVYLQMNSLKPEDTAVYYCATYWSLSQSRQGDYWGQGTQVTVSS	high polyreactivity
QVQLVESGGGLVQAGGSLRLSCAASGRTFGWYAMGWYRQAPGKERELVAAISTRGTRTYYADSVKGRFTISRDNAKNTVYLQMNSLKPEDTAVYYCNAKRRAVTTAHGIPEEDYWGQGTQVTVSS	high polyreactivity
QVQLVESGGGLVQAGGSLRLSCAASGRTFGWYTMGWYRPAPGKERELVAAISRSGTSTYYADSVKGRFTISRDNAKNTVYLQMNSLKQEDTAVYYCAQYVNPRGGNYWGQGTQVTVSS	high polyreactivity
QVQLVESGGGLVQAGGSLRLSCAASGRTFGYNAMGWYRKAPGKEREFVAAISWSGGRTYYADSVKGRFTISRDNAKNTVYLQMNSLKPEDTAVYYCAAGFGDGPGNGYYTRYSWDDDYWGQGTQVTVSS	low polyreactivity
